Molecular target: T1, gastrin receptor CCKBR on human islets (human) (UniProt P32239)
T1 sequence (looked up): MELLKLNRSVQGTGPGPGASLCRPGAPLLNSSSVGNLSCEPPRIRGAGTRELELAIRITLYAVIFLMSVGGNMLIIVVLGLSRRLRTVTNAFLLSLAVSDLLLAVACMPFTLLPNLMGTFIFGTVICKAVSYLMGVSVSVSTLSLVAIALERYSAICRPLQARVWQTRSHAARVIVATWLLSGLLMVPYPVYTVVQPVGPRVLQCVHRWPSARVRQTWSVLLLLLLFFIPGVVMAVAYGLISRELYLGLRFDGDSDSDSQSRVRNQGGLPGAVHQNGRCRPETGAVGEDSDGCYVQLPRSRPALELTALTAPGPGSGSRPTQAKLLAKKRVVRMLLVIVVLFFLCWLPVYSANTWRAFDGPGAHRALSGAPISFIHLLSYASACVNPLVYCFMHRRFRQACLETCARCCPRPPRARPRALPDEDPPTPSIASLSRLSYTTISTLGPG
Assay: cell-based or functional assay

Substance: gastrin analogue [Leu^15] Gastrin-17 (GAST-17) (peptide)
- glucagon mRNA (qPCR) in human islets from donors with high HbA1c, 100 nM gastrin: 1.8 fold
- insulin mRNA (qPCR) in human islets from donors with high HbA1c, 100 nM gastrin: > 2 fold
- somatostatin mRNA (qPCR) in human islets from donors with high HbA1c, 100 nM gastrin: 2.5 fold

Reference: patent publication US20240269194A1, “COMPOSITIONS AND METHODS FOR ISLET CELL TRANSPLANTS” (City of Hope, priority 2021, published 2024)
